According to US20040235710A1, “Pre-mixes of glp-1 and basal insulin” (published 2004):
No end group written: not given here.

molecular target: T1, human GLP-1 receptor (human, UniProt P43220); test: cell-based or functional assay

| Binder | GLP-1 receptor activation relative to Val^8-GLP-1(7-37)OH [relative potency] |
| --- | --- |
| HVEGTYTSDYSSYLEGQAAKEFIAWLVKGRG [Val^8-Tyr^12-Tyr^16-GLP-1(7-37)OH] | 1.5 |
| HGEGTFTSDVSSYLEGQAAKEFIAWLVKGRG [Gly^8-GLP-1(7-37)OH] | 1.7 |
| HVEGTWTSDVSSYLEGQAAKEFIAWLVKGRG [Val^8-Trp^12-GLP-1(7-37)OH] | 1.1 |
| HVEGTFTSDYSSFLEGQAAKEFIAWLVKGRG [Val^8-Tyr^16-Phe^19-GLP-1(7-37)OH] | 2.8 |
| HVEGTYTSDVSSYLEGQAAKEFIAWLVKGR-NH2 [Val^8-Tyr^12-GLP-1(7-36)NH2] | 1.1 |
| HVEGTFTSDWSSYLEEQAVKEFIAWLVKGRG [Val^8-Trp^16-Glu^22-Val^25-GLP-1(7-37)OH] | 4.4 |
| HVEGTFTSDVSSYLEGQALKEFIAWLVKGRG [Val^8-Leu^25-GLP-1(7-37)OH] | 0.5 |
| HVEGTYTSDVSSYLEEQAAKEFIAWLVKGRG [Val^8-Tyr^12-Glu^22-GLP-1(7-37)OH] | 2.7 |
| HVEGTWTSDVSSYLEEQAAKEFIAWLVKGRG [Val^8-Trp^12-Glu^22-GLP-1(7-37)OH] | 1.7 |
| HVEGTFTSDLSSYLEGQAAKEFIAWLVKGRG [Val^8-Leu^16-GLP-1(7-37)OH] | 1.1 |
| HVEGTFTSDLSSYLEEQAAKEFIAWLVKGRG [Val^8-Leu^16-Glu^22-GLP-1(7-37)OH] | 4.3 |

molecular target: T1, human GLP-1 receptor; test: cell-based or functional assay; remark: another data set of the same source

| Binder | GLP-1 Receptor Activation (relative to GLP-1(7-37)OH) [relative potency] |
| --- | --- |
| HVEGTFTSDVSSYKEGQAAKEFIAWLVKGRG [Val^8-Lys^20-GLP-1(7-37)OH] | 0.33 |
| HVEGTFTSDVSSYLEGQHAKEFIAWLVKGRG [Val^8-His^24-GLP-1(7-37)OH] | 0.007 |
| HVEGTFTSDVSSYLEGQAAKEFIAWLVKGEG [Val^8-Glu^36-GLP-1(7-37)OH] | 0.11 |
| HVEGTFTSDVSSYLEGQAAKEFIAWLGKGRG [Val^8-Gly^33-GLP-1(7-37)OH] | 0.01 |
| HVEGTFTSDVSSYLEGQAAKEFIAWLVGKRG [Val^8-Gly^34-Lys^35-GLP-1(7-37)OH] | 0.34 |
| HVEGTFTSDVSSYLEGQAAKEFIAWLVKHRG [Val^8-His^35-GLP-1(7-37)OH] | 0.41 |
| HVEGAFTSDVSSYLEGQAAKEFIAWLVKGRG [Val^8-Ala^11-GLP-1(7-37)OH] | 0.021 |
| HVEGTFTSDVSSYLEGQAAKEFISWLVKGRG [Val^8-Ser^30-GLP-1(7-37)OH] | 0.19 |
| HVEGTFTSDVSSYLEKQAAKEFIEWLVKGRG [Val^8-Lys^22-Glu^30-GLP-1(7-37)OH] | 0.37 |
| HVEGKFTSDVSSYLEGQAAKEFIAWLVKGRG [Val^8-Lys^11-GLP-1(7-37)OH] | 0.001 |
| HVEGTFTSDVSSYLEGQAAKEFIAWLEKGRG [Val^8-Glu^33-GLP-1(7-37)OH] | 0.039 |
| HVEGTFTSDVSSYLEGQAAKEFIAWLVKGRH [Val^8-His^37-GLP-1(7-37)OH] | 0.33 |
| HVEGTFTSDVSSYLEGQAAKEFIDWLVKGRG [Val^8-Asp^30-GLP-1(7-37)OH] | 0.15 |
| HVEGTFTSDVSSYLEGQAAKEFIEWLVKGRG [Val^8-Glu^30-GLP-1(7-37)OH] | 0.29 |
| HVEGTFTSDVSSYLEGQAAEEFIAWLVKGRG [Val^8-Glu^26-GLP-1(7-37)OH] | 1.5 |
| HVEGTFTSDVSSYLEGQAAKHFIAWLVKGRG [Val^8-His^27-GLP-1(7-37)OH] | 0.37 |
| HVEGTFTSDVSSYLEGQAAKEFIAWLVKGHG [Val^8-His^36-GLP-1(7-37)OH] | 0.22 |
| HVEGTFTSDVSSYLEGQAAKEFIAWLKVGRG [Val^8-Lys^33-Val^34-GLP-1(7-37)OH] | 0.08 |
| HVEGTFTSDVSSYLEGKAAKEFIAWLVKGRG [Val^8-Lys^23-GLP-1(7-37)OH] | 0.18 |
| HVEGTFTSDVSSYLEGQAAKEFIAWLVKPRG [Val^8-Pro^35-GLP-1(7-37)OH] | 0.094 |
| HAEGTFTSDVSSYLEQQAAKEFIAWLVKGRG [Gln^22-GLP-1(7-37)OH] | 0.42 |
| HVEGTFTSDVSSYLEGQAAKEFIAWLVEGRG [Val^8-Glu^34-GLP-1(7-37)OH] | 0.17 |
| HVEGTFTSDVSSYLEGQKAKEFIAWLVKGRG [Val^8-Lys^24-GLP-1(7-37)OH] | 0.02 |

| Binder | GLP-1 Receptor Activation (relative to GLP-1(7-37)OH) [relative potency] |
| --- | --- |
| HGEGHFTSDVSSYLEGQAAKEFIAWLVKGRG [Gly^8-His^11-GLP-1(7-37)OH] | 0.282 |
| HVEGTFTSDVSSYLEGQAAKEFIHWLVKGRG [Val^8-His^30-GLP-1(7-37)OH] | 0.19 |
| HVEGTFTSDVSSYLEKEAAKEFIAWLVKGRG [Val^8-Lys^22-Glu^23-GLP-1(7-37)OH] | 0.35 |
| HVEGTFTSDVSSYLEGQAAKEFIAWLKNGRG [Val^8-Lys^33-Asn^34-GLP-1(7-37)OH] | 0.09 |
| HVEGTFTSDLSSYLEGQAAEEFIAWLVKGRG [Val^8-Leu^16-Glu^26-GLP-1(7-37)OH] | 0.23 |
| HVEGTFTSDVSSYLEGQAAKEFIAWLAKGRG [Val^8-Ala^33-GLP-1(7-37)OH] | 0.1 |
| HVEGTFTSDVSSYLEGQAAKEFIAWLVKERG [Val^8-Glu^35-GLP-1(7-37)OH] | 0.15 |
| HGEGTFTSDVSSYLEGQAAKEFIEWLVKGRG [Gly^8-Glu^30-GLP-1(7-37)OH] | 0.29 |
| HVEGTFTSDVSSYLEGQAAHEFIAWLVKGRG [Val^8-His^26-GLP-1(7-37)OH] | 1.6 |
| HVEGTFTSDVSSYLEKQAAKEFIAWLVKGR-NH2 [Val^8-Lys^22-GLP-1(7-36)NH2] | 0.53 |
| HVEGTFTSDVSSYLEGQAAKEFIAWLVKGGP-NH2 [Val^8-Gly^36-Pro^37-GLP-1(7-37)NH2] | 0.53 |
| HVEGTFTSDVSSYLEKQAAKEFIAWLVKGRG [Val^8-Lys^22-GLP-1(7-37)OH] | 0.58 |
| HVEGTFTSDVSSYLESQAAKEFIAWLVKGRG [Val^8-Ser^22-GLP-1(7-37)OH] | 0.5 |
| HVEGTFTSDVSSYLEDQAAKEFIAWLVKGRG [Val^8-Asp^22-GLP-1(7-37)OH] | 0.4 |
| HVEGTFTSDVSSYLEPQAAKEFIAWLVKGRG [Val^8-Pro^22-GLP-1(7-37)OH] | 0.01 |
| HVEGTFTSDVSSYLEHQAAKEFIAWLVKGRG [Val^8-His^22-GLP-1(7-37)OH] | 0.14 |
| HVEGTFTSDVSSYLEEKAAKEFIAWLVKGRG [Val^8-Glu^22-Lys^23-GLP-1(7-37)OH] | 1.43 |
| HVEGTFTSDESSYLEGQAAKEFIAWLVKGRG [Val^8-Glu^16-GLP-1(7-37)OH] | 0.047 |
| HVEGTFTSDVSSYLEEQAAKEFIAWLVKGRG [Val^8-Glu^22-GLP-1(7-37)OH] | 1.29 |
| HVEGTFTSDASSYLEGQAAKEFIAWLVKGRG [Val^8-Ala^16-GLP-1(7-37)OH] | 0.112 |
| HVEGTFTSDVSSYLEAQAAKEFIAWLVKGRG [Val^8-Ala^22-GLP-1(7-37)OH] | 0.56 |
| HVEGTFTSDVSSYLEEQAAKEFIAWLVKGR-NH2 [Val^8-Glu^22-GLP-1(7-36)NH2] | 1 |
